# Test results reported in paper doi:10.1101/209643 (bioRxiv, 2017).
# B1: Double mutant septin complex (Cdc10, Cdc3, Cdc12 T75A, Cdc11 D65T-GFP) (complex)
# chain 1: MSAATATAAPVPPPVGISNLPNQRYKIVNEEGGTFTVMLCGESGLGKTTFINTLFQTVLKRADGQQHRQEPIRKAVEIDITRALLEEKHFELRVNVIDTPGFGDNVNNNKAWQPLVDFIDDQHDSYMRQEQQPYRTKKFDLRVHAVLYFIRPTGHGLKPIDIETMKRLSTRANLIPVIAKADTLTAQELQQFKSRIRQVIEAQEIRIFTPPLDADSKEDAKSGSNPDSAAVEHARQLIEAMPFAIVGSEKKFDNGQGTQVVARKYPWGLVEIENDSHCDFRKLRALLLRTYLLDLISTTQEMHYETYRRLRLEGHENTGEGNEDFTLPAIAPARKLSHNPRYKEEENALKKYFTDQVKAEEQRFRQWEQNIVNERIRLNGDLEEIQGKVKKLEEQVKSLQVKKSHLK
# chain 2: MDPLSSVQPASYVGFDTITNQIEHRLLKKGFQFNIMVVGQSGLGKSTLINTLFASHLIDSATGDDISALPVTKTTEMKISTHTLVEDRVRLNINVIDTPGFGDFIDNSKAWEPIVKYIKEQHSQYLRKELTAQRERFITDTRVHAILYFLQPNGKELSRLDVEALKRLTEIANVIPVIGKSDTLTLDERTEFRELIQNEFEKYNFKIYPYDSEELTDEELELNRSVRSIIPFAVVGSENEIEINGETFRGRKTRWSAINVEDINQCDFVYLREFLIRTHLQDLIETTSYIHYEGFRARQLIALKENANSRSSAHMSSNAIQR
# chain 3: MSLKEEQVSIKQDPEQEERQHDQFNDVQIKQESQDHDGVDSQYTNGTQNDDSERFEAAESDVKVEPGLGMGITSSQSEKGQVLPDQPEIKFIRRQINGYVGFANLPKQWHRRSIKNGFSFNLLCVGPDGIGKTTLMKTLFNNDDIEANLVKDYEEELANDQEEEEGQGEGHENQSQEQRHKVKIKSYESVIEENGVKLNLNVIDTEGFGDFLNNDQKSWDPIIKEIDSRFDQYLDAENKINRHSINDKRIHACLYFIEPTGHYLKPLDLKFMQSVYEKCNLIPVIAKSDILTDEEILSFKKTIMNQLIQSNIELFKPPIYSNDDAENSHLSERLFSSLPYAVIGSNDIVENYSGNQVRGRSYPWGVIEVDNDNHSDFNLLKNLLIKQFMEELKERTSKILYENYRSSKLAKLGIKQDNSVFKEFDPISKQQEEKTLHEAKLAKLEIEMKTVFQQKVSEKEKKLQKSETELFARHKEMKEKLTKQLKALEDKKKQLELSINSASPNVNHSPVPTKKKGFLR
# chain 4: MSGIIDASSALRKRKHLKRGITFTVMIVGQSGSGRSTFINTLCGQQVVDTSTTILLPTDTSTEITLQLREETVELEDDEGVKIQLNIIDTPGFGDSLDNSPSFEIISDYIRHQYDEILLEESRVRRNPRFKDGRVHCCLYLINPTGHGLKEIDVEFIRQLGSLVNIIPVISKSDSLTRDELKLNKKLIMEDIDRWNLPIYNFPFDEDEISDEDYETNMYLRTLLPFAIIGSNEVYEMGGDVGTIRGRKYPWGILDVEDSSISDFVILRNALLISHLHDLKNYTHEILYERYRTEALSGESVAAESIRPNLTKLNGSSSSSTTTRRNTNPFKQSNNINNDVLNPASDMHGQSTGENNETYMTREEQIRLEEERLKAFEERVQQELLLKRQELLQREKELREIEARLEKEAKIKQEE
# Target: the molecule itself
# Assay: TIRF microscopy of filament polymerisation
protein,measurement,value
B1,binding result,binds
